Experimental data as given in patent US20240132624A1 (Ablynx, published 2024).

B1: T0263018B11 S31P (VHH, name in Kabat numbering)
VHH: EVQLVESGGGVVQPGGSLRLSCAASGFTFSPYAMYWVRQAPGKGLEWVSAISSGGGSTDYADSVKGRFTISRDNSKNTLYLQMNSLRPEDTALYYCAADTLYTSLTWYSYWGQGTLVTVSS
notes: FLAG3-His6 tagged
B2: T0263018B11 S31K (VHH, name in Kabat numbering)
VHH: EVQLVESGGGVVQPGGSLRLSCAASGFTFSKYAMYWVRQAPGKGLEWVSAISSGGGSTDYADSVKGRFTISRDNSKNTLYLQMNSLRPEDTALYYCAADTLYTSLTWYSYWGQGTLVTVSS
notes: FLAG3-His6 tagged
B3: T0263018B11 S30D (VHH, name in Kabat numbering)
VHH: EVQLVESGGGVVQPGGSLRLSCAASGFTFDSYAMYWVRQAPGKGLEWVSAISSGGGSTDYADSVKGRFTISRDNSKNTLYLQMNSLRPEDTALYYCAADTLYTSLTWYSYWGQGTLVTVSS
notes: FLAG3-His6 tagged
B4: T0263018B11 S30N (VHH, name in Kabat numbering)
VHH: EVQLVESGGGVVQPGGSLRLSCAASGFTFNSYAMYWVRQAPGKGLEWVSAISSGGGSTDYADSVKGRFTISRDNSKNTLYLQMNSLRPEDTALYYCAADTLYTSLTWYSYWGQGTLVTVSS
notes: FLAG3-His6 tagged
B5: T0263018B11 S30K (VHH, name in Kabat numbering)
VHH: EVQLVESGGGVVQPGGSLRLSCAASGFTFKSYAMYWVRQAPGKGLEWVSAISSGGGSTDYADSVKGRFTISRDNSKNTLYLQMNSLRPEDTALYYCAADTLYTSLTWYSYWGQGTLVTVSS
notes: FLAG3-His6 tagged
B6: T0263018B11 S52E (VHH, name in Kabat numbering)
VHH: EVQLVESGGGVVQPGGSLRLSCAASGFTFSSYAMYWVRQAPGKGLEWVSAIESGGGSTDYADSVKGRFTISRDNSKNTLYLQMNSLRPEDTALYYCAADTLYTSLTWYSYWGQGTLVTVSS
notes: FLAG3-His6 tagged
B7: T0263018B11 S30Q (VHH, name in Kabat numbering)
VHH: EVQLVESGGGVVQPGGSLRLSCAASGFTFQSYAMYWVRQAPGKGLEWVSAISSGGGSTDYADSVKGRFTISRDNSKNTLYLQMNSLRPEDTALYYCAADTLYTSLTWYSYWGQGTLVTVSS
notes: FLAG3-His6 tagged
B8: T0263018B11 L100aM (VHH, name in Kabat numbering)
VHH: EVQLVESGGGVVQPGGSLRLSCAASGFTFSSYAMYWVRQAPGKGLEWVSAISSGGGSTDYADSVKGRFTISRDNSKNTLYLQMNSLRPEDTALYYCAADTLYTSMTWYSYWGQGTLVTVSS
notes: FLAG3-His6 tagged
B9: T0263018B11 S31Q (VHH, name in Kabat numbering)
VHH: EVQLVESGGGVVQPGGSLRLSCAASGFTFSQYAMYWVRQAPGKGLEWVSAISSGGGSTDYADSVKGRFTISRDNSKNTLYLQMNSLRPEDTALYYCAADTLYTSLTWYSYWGQGTLVTVSS
notes: FLAG3-His6 tagged
B10: T0263018B11 S52G (VHH, name in Kabat numbering)
VHH: EVQLVESGGGVVQPGGSLRLSCAASGFTFSSYAMYWVRQAPGKGLEWVSAIGSGGGSTDYADSVKGRFTISRDNSKNTLYLQMNSLRPEDTALYYCAADTLYTSLTWYSYWGQGTLVTVSS
notes: FLAG3-His6 tagged
B11: T0263018B11 G55D (VHH, name in Kabat numbering)
VHH: EVQLVESGGGVVQPGGSLRLSCAASGFTFSSYAMYWVRQAPGKGLEWVSAISSGGDSTDYADSVKGRFTISRDNSKNTLYLQMNSLRPEDTALYYCAADTLYTSLTWYSYWGQGTLVTVSS
notes: FLAG3-His6 tagged

Assays:
cyno FcRn/b2M [1] = target: T1, cyno FcRn/b2M (cyno, UniProt Q8SPV9 24-297; Q8SPW0 21-119, biotinylated); assay: SPR off-rate; pH 7.4 vs pH 6.0;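 also: surface plasmon resonance with diluted periplasmic extracts flowed over ligand surfaces, 120 s association and 600–3600 s dissociation at 25 °C, running buffer containing 150 mM NaCl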
T1 construct: bought recombinant biotinylated protein (Immunitrack ITF05 or ACRO FCM-C82W5); also called cFcRn; cFcRn/cb2M
T1 sequence (Q8SPV9 24-297 limits assumed, chain 1 of 2): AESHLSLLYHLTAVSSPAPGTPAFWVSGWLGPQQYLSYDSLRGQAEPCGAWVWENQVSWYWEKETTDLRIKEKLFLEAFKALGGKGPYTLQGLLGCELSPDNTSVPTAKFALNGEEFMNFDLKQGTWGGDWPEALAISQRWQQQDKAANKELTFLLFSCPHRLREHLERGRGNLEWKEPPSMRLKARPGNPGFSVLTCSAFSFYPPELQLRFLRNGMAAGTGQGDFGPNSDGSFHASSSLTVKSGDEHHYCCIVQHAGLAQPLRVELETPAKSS
T1 sequence (Q8SPW0 21-119 limits assumed, chain 2 of 2): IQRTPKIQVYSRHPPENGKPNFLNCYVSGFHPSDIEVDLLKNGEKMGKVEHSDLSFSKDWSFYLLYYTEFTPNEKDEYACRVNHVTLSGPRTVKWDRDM
Method: (§1) All kinetic measurements have been performed on ProteOn XPR36 (BioRad Laboratories, Inc.), MASS-2 (Sierra sensors, Gmbh) or SPR-32 (Bruker Corporation). […] The phytip purified periplasmic extracts were diluted 1:10 in running buffer (CPA+150 mM NaCl+0.005% Tw20 at pH 5.5, pH 6.0 or pH 7.4) and injected over the ligand surfaces (association: 120 s at 45 μL/min; dissociation: 600s-3600 s at 45 μL/min). Experiments were carried out at 25° C.

human FcRn/b2M [2] = target: T2, human FcRn/b2M (human, UniProt P61769 21-119, biotinylated); assay: SPR off-rate; pH 7.4 vs pH 6.0;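 also: surface plasmon resonance with diluted periplasmic extracts flowed over ligand surfaces, 120 s association and 600–3600 s dissociation at 25 °C, running buffer containing 150 mM NaCl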
T2 construct: bought recombinant biotinylated protein (ACRO FCM-H82W4 or Immunitrack ITF01); also called hFcRn; hFcRn/hb2M
T2 sequence (chain, as listed by the source limits assumed, chain 1 of 2): as the sequence (Q8SPV9 24-297 limits assumed, chain 1 of 2) above, with D39N, Q44E, S99G, G189S, N190S, M217L, T269S counted along it
T2 sequence (P61769 21-119 limits assumed, chain 2 of 2): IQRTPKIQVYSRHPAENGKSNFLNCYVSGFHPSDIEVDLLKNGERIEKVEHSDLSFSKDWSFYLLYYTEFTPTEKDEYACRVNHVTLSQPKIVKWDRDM
Method: as §1

cyno FcRn/b2M [3] = target: T1, cyno FcRn/b2M; assay: SPR pH 7.4;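 also: surface plasmon resonance kinetics, periplasmic extracts diluted 1:10 flowed over immobilized target at 25 °C, 120 s association then 600–3600 s dissociation, buffer with 150 mM NaCl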
Method: as §1

human FcRn/b2M [4] = target: T2, human FcRn/b2M; assay: SPR pH 7.4;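 also: surface plasmon resonance kinetics, periplasmic extracts diluted 1:10 flowed over immobilized target at 25 °C, 120 s association then 600–3600 s dissociation, buffer with 150 mM NaCl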
Method: as §1

cyno FcRn/b2M [5] = target: T1, cyno FcRn/b2M; assay: SPR pH 6.0;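 also: surface plasmon resonance kinetics at 25 °C, diluted periplasmic extracts injected over immobilized ligand surfaces, 120 s association then 600–3600 s dissociation, running buffer containing 150 mM NaCl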
Method: as §1

human FcRn/b2M [6] = target: T2, human FcRn/b2M; assay: SPR pH 6.0;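 also: surface plasmon resonance kinetics at 25 °C, diluted periplasmic extracts injected over immobilized ligand surfaces, 120 s association then 600–3600 s dissociation, running buffer containing 150 mM NaCl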
Method: as §1

Binder | kd ratio pH 7.4/6.0 (cyno FcRn/b2M [1]) | kd ratio pH 7.4/6.0 (human FcRn/b2M [2]) | koff (cyno FcRn/b2M [3]) | koff (human FcRn/b2M [4]) | koff (cyno FcRn/b2M [5]) | koff (human FcRn/b2M [6])
B1 | 59 | 49 | 0.043 s⁻¹ | 0.043 s⁻¹ | 0.00073 s⁻¹ | 0.00088 s⁻¹
B2 | 40 | 37 | 0.044 s⁻¹ | 0.048 s⁻¹ | 0.0011 s⁻¹ | 0.0013 s⁻¹
B3 | 65 | 41 | 0.17 s⁻¹ | 0.13 s⁻¹ | 0.0026 s⁻¹ | 0.0032 s⁻¹
B4 | 46 | 42 | 0.061 s⁻¹ | 0.082 s⁻¹ | 0.0013 s⁻¹ | 0.0019 s⁻¹
B5 | 18 | 9 | 0.055 s⁻¹ | 0.069 s⁻¹ | 0.003 s⁻¹ | 0.0078 s⁻¹
B6 | 20 | 16 | 0.047 s⁻¹ | 0.042 s⁻¹ | 0.0023 s⁻¹ | 0.0026 s⁻¹
B7 | 47 | 42 | 0.026 s⁻¹ | 0.035 s⁻¹ | 0.00055 s⁻¹ | 0.00085 s⁻¹
B8 | 41 | 42 | 0.51 s⁻¹ | 0.62 s⁻¹ | 0.013 s⁻¹ | 0.015 s⁻¹
B9 | 79 | 43 | 0.013 s⁻¹ | 0.017 s⁻¹ | 0.00016 s⁻¹ | 0.00038 s⁻¹
B10 | 27 | 32 | 0.011 s⁻¹ | 0.012 s⁻¹ | 0.0004 s⁻¹ | 0.00039 s⁻¹
B11 | 54 | 41 | 0.07 s⁻¹ | 0.07 s⁻¹ | 0.0013 s⁻¹ | 0.0017 s⁻¹
